Data: doi:10.1101/467969 (bioRxiv, 2018)

Target: the molecule itself
Assay: cryo-EM structure

B1: mouse TRPC5 construct lacking the C-terminal 210 residues (a.a. 1-765) (domain or fragment, UniProt Q9QX29 1-765, looked up)
chain: MAQLYYKKVNYSPYRDRIPLQIVRAETELSAEEKAFLSAVEKGDYATVKQALQEAEIYYNVNINCMDPLGRSALLIAIENENLEIMELLLNHSVYVGDALLYAIRKEVVGAVELLLSYRKPSGEKQVPTLMMDTQFSEFTPDITPIMLAAHTNNYEIIKLLVQKRVTIPRPHQIRCNCVECVSSSEVDSLRHSRSRLNIYKALASPSLIALSSEDPILTAFRLGWELKELSKVENEFKAEYEELSQQCKLFAKDLLDQARSSRELEIILNHRDDHSEELDPQKYHDLAKLKVAIKYHQKEFVAQPNCQQLLATLWYDGFPGWRRKHWVVKLLTCMTIGFLFPMLSIAYLISPRSNLGLFIKKPFIKFICHTASYLTFLFMLLLASQHIVRTDLHVQGPPPTVVEWMILPWVLGFIWGEIKEMWDGGFTEYIHDWWNLMDFAMNSLYLATISLKIVAYVKYNGSRPREEWEMWHPTLIAEALFAISNILSSLRLISLFTANSHLGPLQISLGRMLLDILKFLFIYCLVLLAFANGLNQLYFYYETRAIDEPNNCKGIRCEKQNNAFSTLFETLQSLFWSVFGLLNLYVTNVKARHEFTEFVGATMFGTYNVISLVVLLNMLIAMMNNSYQLIADHADIEWKFARTKLWMSYFDEGGTLPPPFNIIPSPKSFLYLGNWFNNTFCPKRDPDGRRRRHNLRSFTERHADSLIQNQHYQEVIRNLVKRYVAAMIRNSKTNEGLTEENFKELKQDISSFRYEVLDLLGNRK
Q: B1 was tested. Which “stoichiometry N” value did it give?
A: 4
